The DeepSol protein solubility set

Test: soluble on expression in E. coli; label from the status in PepcDB or PDB records

| Sequence | soluble on expression in E. coli |
| --- | --- |
| MGSDKIHHHHHHMGIYRTQLPQLDGGVFLTDGGIETTLIFHEGFELPYFAAFELLKTPQGRDALTHYFVTYVKLAGLFDTGFILESPTWRASSDWGALLGYTKETLAQANREAIALLEVIREAHSGRLPVVVSGCIGPRFDGYLPDKSMTAEDARHYHSIQIETLASTSADMICALTLNRVEEAIGIVEAAREAAMPVVISFTLETDGRLPTGQSLGDAVVQVDEATAGYAAYFMINCAHPSHLETVPQDAPWLARVKGFRANASSLSHAELNDATTLDDGDPHQLGQQYASLMSTRLKGLNVLGGCCGTDHRHLEQIAKACIKPR | not soluble |
| GGVIATQMTYKVYMSGTVNGHYFEVEGDGKGRPYEGEQTVKLTVTKGGPLPFAWDILSPQCQYGSIPFTKYPEDIPDYVKQSFPEGFTWERIMNFEDGAVCTVSNDSSIQGNCFTYHVKFSGLNFPPNGPVMQKKTQGWEPSSERLFARGGMLIGNNFMALKLEGGGHYLCEFKTTYKAKKPVKMPGYHYVDRKLDVTNHNKDYTSVEQCEISIARKPVVA | soluble |
| MKKSNIYIGEVIKQVIAEKQVTKAELARRLGVKPQSVDYLLTRKSIDTDTLYSLSLALDYDFAVLYSIKKEHALATDEESPFKVGNAKISLEIELRPDEMLKLNLKQKIADLLEGKGK | not soluble |
| MAAQIPIVAATSTPAVARNSKKRPASPSHNSSGGGYGASKKKKLSASGFAQGVSIEAMNESKMASSELSSGPVEKAAKPLPFKDPNFVHSGHGGAVAGKKNRTWKNLKQILAAERALPWQLNDPNYFSIDAPPSFKPAKKYSDISGLLANYTDPQSKLRFSTVEEFSYIRRLPSDVVTGYLALRKATSIVP | not soluble |
| RDPEGLLGDKEDLGITCALIPTDVKGVEIGNRHFPLNVPFQNGPTRGKDIFVPIDFIIGGEKMAGQGWRMLVECLSVGRGITLPSNSTGGIKSAAMATGAYSRIRRQFKQPIGHMEGVEEPLARLGGNAYVMDAASNLTVAGIDLGEKPSVISAIVKYHCTHRGQQSIIDAMDIVGGKGICLGPSNFLARGYQGSPIAVTVEGANILTRSMIIFGQGAIRCHPYVLEEMNAAYSEASDAVEKFDKALAGHVSFTMSNLVRSIWFGLSDGLGSSAPTKDATKRYYQQLNR | not soluble |
| MSAACWEEPWGLPGGFAKRVLVTGGAGFIASHMIVSLVEDYPNYMIINLDKLDYCASLKNLETISNKQNYKFIQGDICDSHFVKLLFETEKIDIVLHFAAQTHVDLSFVRAFEFTYVNVYGTHVLVSAAHEARVEKFIYVSTDEVYGGSLDKEFDESSPKQPTNPYASSKAAAECFVQSYWEQYKFPVVITRSSNVYGPHQYPEKVIPKFISLLQHNRKCCIHGSGLQTRNFLYATDVVEAFLTVLKKGKPGEIYNIGTNFEMSVVQLAKELIQLIKETNSESEMENWVDYVNDRPTNDMRYPMKSEKIHGLGWRPKVPWKEGIKKTIEWYRENFHNWKNVEKALEPFPV | soluble |
| MGSDKIHHHHHHMRVFVARQPIFNRKEQVVAYELLYRESEENVYSAKDGDQATTDLVINSFLNIGIEKLTEGKRCFVNFTESLMFSNLPTSFNPKQLVIEILEDIPITPALISRCKELKKMGYMLALDDFYAINPQDEDLLEKLMSYIDILKIDFLKTTRMERRTILQTYGCRGLIFLAEKVETRKEYKQAVQDGFQLFQGYFFSEPRIISGHDLSTHFYSYYELLNELSKEQPNIKRVTEYIERDLSLSYQILKFLNSSHSRLSQKIESIQQAIMLLGFNEIKRWIYILSFKDLSRKGHSSKHEIIKISLIRAKLCELLARKTSRPQPASYMLIGMFSLIDTLLHREIEEIVQELPLKDEVGQALLGHQNDYYQMLELVKLIESNNWDTCSELGNQLDKEEAYECYLEALEWCHNLMDAK | not soluble |
| MGSDKIHHHHHHILDSTIYLIGTAHFSKESQEDVSNTIRAVQPDFVMLELCPSRISIISMDEARLLSEAKDLNSQKIIQTMKQNGAIQGILHVLLLSMSAHVTRELSMAPGGEFRAAHRAAVATENCRVVLGDRPIQVTLQRALASLSIWQKIRFFFHVAFSHREKITAEEVERCKQRDLLEQLLAEMADDFPQLSQIFVEERDAYMTHALHMLVHRNSVEKRAQWLRGTTGQQFQPLTVVAVV | not soluble |
| MLRNLKKTLVLDSSVFIQGIDIEGYTTPSVVEEIKDRESKIFLESLISAGKVKIAEPSKESIDRIIQVAKETGEVNELSKADIEVLALAYELKGEIFSDDYNVQNIASLLGLRFRTLKRGIKKVIKWRYVCIGCGRKFSTLPPGGVCPDCGSKVKLIPRKRLEHHHHHH | not soluble |
| MDKMLEKFEGSILGLSIGDALGMPTEWFTKEEIAEKYGLIDNFVDPKNKFNGILKAGQYTDDTDQTIAILNSFDVRGFNNDIFIKELIKWYNNNPVGMGPTSTKAIEKLIEGDTTGCDSRTCGSSMRVGPLGLFYFGEYDKLKEITIKATKLTHNNDEAIAGALSIAFFVAESVNNVKSEKSIKRCAKFIEDVSYDFSEKILLINDLNSADEAYELFDTGLPAIECVPSAIATFLRTDTFKDGMISCVNAGGDTDSMGSMYGAIAGAYYGVLNIPELWIAGLQNKDLLVDLSKKLYKLRFKKLEHHHHHH | soluble |
| MVIERSCMGDLDKNPAVKAMVVFRKAMRTIDAQVAPSYKNNGLTQTQFAVLDVLYAKGEMTISRLIASILATSGNMTVVIKNMERNGWIYRSPNPDDRRASVVGLTEVGKQLIQKALPDHIAMVEAAFSVMTEEEQLVLIDLLKKFKSL | not soluble |
| MGSDKIHHHHHHMVDVKRNIFLILDDRELTSEEVRSLVGTRRYSEISLKRRSLLEHLRAALPAWAQTRLVHIKDNNDVVALRNVLESCGEQSPALVIAGRAGFLQPERLTQLIERLPYAEEDFTDRLYRPLLVYLKSVHDLHSCWQQFEAEPLHLWPKAWQDCQRLESLEPLDLARIRDFLTFTGGATATRHFNEVLIDNYYYTKRSSDKQKMLAEYSFYGLAPESMRPWLIQPFEFREEGGGASYKMLRYFLADAALQWVHGAFDRDTFMAFIERLLFFIAERPRKACAREESAAVARDMFVTKVSARIEAFLAMEEGRRINALAASASPMLDVQAMLKRYLALYQRHERAFAFDYMVVGHGDPCFSNVLYDQQRYLLKLIDPKGAATEADLWTNPLYDLCKISHSVLGDYDFINNGLYRVGFTDANALKLAFSHRNHDDLKPIFSSLVGKMGMDYRIMRLGEASLFLSMLPLHIDYPNKILAFMLKAHEILREVEGEARV | not soluble |
| MGSDKIHHHHHHMKKLLNTLYVTSENSYLGLDGENVVVYDDKNEIGRLPLHNLEAIISFGYRGTSPALMGACADRNISLCYLTPQGKFLARVSGKVKGNVVLRKQQFQSSSEDIKCLEIAKNCILGKVYNSRWVLERAIRDHSMQIDVDKVKKASIKLKEFLDYIQNSQSMNQLRGYEGEAASIYFGVFDELILQQKKDFFFQGRNRRPPLDNVNAMLSFTYTLLTTQITSALEVVGLDPYVGYMHTERPGRVSLSLDLIEELRAVMADRFVLSLINKKIVNGKSFTKKENGAVLMDTDIRKKLLSEWQNKKKEIITHPYLNEKVEWGMVPFVQAMLLARYLRGDLDEYPVFLWK | not soluble |
| MTTPTFDINAAIQALREGKDLTGKDGILTPLIKQLTEAALAAELDSHLTSTEGANRKNGKTTKTIKSPLGNFELNTPRDRAGTFEPQLVKKHQTQLTDEMERKIIGLFSLGSSYQDIRAHIEDMYGMSVSNGTVNAITDKLLPELQAWRERELEPLYPVIWLDAIHYKIKENGRFISKAVYTILALNVDGKKELLGLYLSDNEGAHHWLSVLTDLYNRGVKDILIACVDGLKGFPEAIATIYPQTEVQLCVIHQIRNSIKYVASKHQKAFMADLKCVYKAATLNAAEMALDELETKWGDKYPVVIKSWRNKWALLSVYFKYPDYVRTAIYTTNAVEAVHRQFRKLAKTKGGFANENSLLKLLYAGILKASERWTHP | soluble |
| GPGSMSATDASITGAEAAPASPGTSPAATGPASTAAVTAYTVGIDIGSATTRVAVMDPAKLMPTIIRNALGNEATSTVVSFAANEARSFGENAAARQVTKASETIVDLAPWIFGYTSGEQVPKDTAVSLQVVSPATAMTEACVLKSRQLGAQEHLTHPAQVAAFYIKSLLQLLPEKGMIRTSPVCLAVPSAAYAASFEALRQATLLAGVPQEQTIIAHSDEATAVYFHHLQYSGLPAKHDGAAVPVVLIDIGQSCSVASLIMASQPRVEKVDCQTLRMGSEYIDALLCSHVYSELGKKFGAAADPLRGDIKSFRKILRECRKAKEVLSTTDETQVQLEGLSGDIDIIVSVTRAMMEQAALPFLQAVRAMLTAIKEKLPVPSATEDGSQAAAVPPRVEVIGGGWRSVCVMEAIREVFGITRVGVSLDANLSVAEGSAILAEVRQLTIARQQDEEQTAQATTASSVAEAHQVELIGFEVLDANSPINRPLSEAGVRAVTEWIMLEKQMEDSDARIHERLAALNRLDSYILQTLAAVDNCAASSEKKTEMRAYIEEVDAYVRSEGDEASSVELNEKLAAVQAHVTEHFSEIEAYYESVRAEEKRKEEELVKLSKERQEDESDLKSDPQRLRMAQKRREQGQGLFREECWAEAQTRFVQALSILGQLYDTSSEENKTKKREISLSCYLNIASCSVKLGLWKNAVNNCTNALELVPDHPKALFRRGQAYSALKEYEEAVTDLEKAKAVSQDDPVVVAELNKAKAALGAEKAKTKKMFAKMFS | soluble |
| MEHIEIRVSATGSMSSFHALCSFHQWPINVACSCWLSHCYRIYSLYPPQLVSCSDRLSTSGNTNAGAEFVTE | soluble |
| MGSDKIHHHHHHLTTVLNASPQRFVNTPAVQRIAQRALRYLQSGFSIHLRGAAGVGKTTLAMHLADLLNQPIILLFGDDEFKTSDLIGNQLGYTRKKVVDNFIHSVIKVEDEVRQHWVDARLTLACKEGFTLVYDEFNRSHPEVNNVLLSVLEERLLVLPTNQHRAEYIRVHPQFRAILTSNPQEYCGVHATQDALMDRVITIDMPTPDELSQQEIVVHKTGIDSEKAEVIVRIVRTFWSRSGSGQGGGLRSCLMIAKICHEHEISVNPGDPSFQDICADILLSRTNQPLIEATRLLEEVLSEFYHRINTQSQPSEIIPNNQNQIVLEQRVPYEHEVYNYLCNSPGRRFSELAVELGIDRSQIVAALKSLREQGVLVQMQGNAESPSISQTVAFDSGHLINK | not soluble |
| AHHHHHHGSVNIMDEIIVVTTPTIPGYKIIEVKGIARGGIVMATHLGRDILALLRNIKGGEVKEYTQMMAEAREEALRRMIEHAKKLGANAVVNFRFATSNVGGGMAEVYAYGTAVVVEREK | not soluble |
| MGSDKIHHHHHHMSLTNVLFLAEELRVGGAETYFYKIENKIDLKKINFYTAAVNGRCFDKLNNKHMYFEYEKGLFSKIKTIKKIVISKNINVIHANSLRLAIISSIVKKLYKKDLKIVYTKHNLTILEKIHTKLFSAFVNKNVDIVLAVCNKDRDNMISIGVSEEKVKVIPNSIDLKHFKFNSKYLRDAGKDFKVGMLSRLSKEKNHEFFLDIAEKADFRALIGGDGPLREEINNRIEKSNLKKKVKMLGNIENSYEFLSSVDVMLLVSTREIFPMTLLEAMAVGTIVISVDIGGIRDCVINDKTGYVIDDYQSEKFITKISDILSDYDKNKELISAARELVENSFNLDITIDELQRLYGEVGL | not soluble |
| MKPAYFISDLHLSEKQPELTALLLRFLRSSAAGQARAIYILGDLFDFWVGDDEVSELNTSVAREIRKLSDKGVAVFFVRGNRDFLIGQDFCRQAGMTLLPDYSVLDLFGCKTLICHGDTLCTDDRAYQRFRKIVHRKRLQKLFLMLPLKWRTRLATKIRRVSKMEKQVKPADIMDVNAAFTARQVRAFGAERLIHGHTHREHIHHENGFTRIVLGDWHNDYASILRVDGDGAVFVPLEKY | not soluble |
| MMLAGCGPIEPDYPNNKYTLTWYCTSDDGTCERVVELRRYDRASIQNNDLTIWDSQDPGGAIEALIVYSDSLPQHCDRIFYLVFFGHEIEEPRYCGNHYAFEIELSIPDEDPATSSRWVISAAPLD | not soluble |
